For this assay, the target named is T1, pM-Gal4DBD-AR (amino acids 624-919), P10275.
T1 chain: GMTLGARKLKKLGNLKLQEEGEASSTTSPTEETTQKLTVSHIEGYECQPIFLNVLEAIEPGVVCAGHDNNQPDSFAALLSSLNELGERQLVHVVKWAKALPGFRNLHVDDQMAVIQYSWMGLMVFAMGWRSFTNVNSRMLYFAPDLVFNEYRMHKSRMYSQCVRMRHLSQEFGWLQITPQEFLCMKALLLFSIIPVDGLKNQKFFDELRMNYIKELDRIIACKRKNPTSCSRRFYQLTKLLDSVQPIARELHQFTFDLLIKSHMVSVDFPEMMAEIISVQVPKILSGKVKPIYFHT
Put plainly: mammalian two-hybrid. As to conditions: chain shown with the change, HEK293T cells, read off a plot.

The text below walks through data of publication PMC11067348.

B1: pVP16-AR111Q (amino acids 12-660), P10275 F23A (protein)
chain: PRPPSKTYRGAAQNLFQSVREVIQNPGPRHPEAASAAPPGASLLLLQQQQQQQQQQQQQQQQQQQQQQQETSPRQQQQQQGEDGSPQAHRRGPTGYLVLDEEQQPSQPQSALECHPERGCVPEPGAAVAASKGLPQQLPAPPDEDDSAAPSTLSLLGPTFPGLSSCSADLKDILSEASTMQLLQQQQQEAVSEGSSSGRAREASGAPTSSKDNYLGGTSTISDNAKELCKAVSVSMGLGVEALEHLSPGEQLRGDCMYAPLLGVPPAVRPTPCAPLAECKGSLLDDSAGKSTEDTAEYSPFKGGYTKGLEGESLGCSGSAAAGSSGTLELPSTLSLYKSGALDEAAAYQSRDYYNFPLALAGPPPPPPPPHPHARIKLENPLDYGSAWAAAAAQCRYGDLASLHGAGAAGPGSGSPSAAASSSWHTLFTAEEGQLYGPCGGGGGGGGGGGGGGGGGGGGGGGEAGAVAPYGYTRPPQGLAGQESDFTAPDVWYPGGMVSRVPYPSPTCVKSEMGPWMDSYSGPYGDMRLETARDHVLPIDYYFPPQKTCLICGDEASGCHYGALTCGSCKVFFKRAAEGKQKYLCASRNDCTIDKFRRKNCPSCRLRKCYEAGMTLGARKLKKLGNLKLQEEGEASSTTSPTEETTQKL
Take B1: the response (Relative Luciferase Units) (DHT treated, parent: est. 2.4) was found to be 0.35. In addition, where the note is “DHT versus EtOH, parent: est. 2.2”, the other: Average Fold Change (DHT/EtOH treated) amounted to 0.9.
